Results published in PMC10238501.
pKd: −log10 of the molar value. Where “and” joins values, the source holds several entries; their conditions need not be identical. Equal entries are not always repeated.

Legend:
Assay in all cases: fluorescence anisotropy
[1] = target: Gal4LOV(SK22) V416L (/ Avena sativa (chimera)) (UniProt P04386); conditions: 20 mM HEPES pH 7.5, 50 mM NaCl, 50 ug/mL BSA, 5% Ficoll 400; 2 nM DNA; temperature not stated
[2] = target: Gal4LOV(SK22) (Gal4 DBD with AsLOV2 inserted between Ser22 and Lys23, no VP64) (/ Avena sativa (chimera)) (UniProt P04386); conditions: 20 mM HEPES pH 7.5, 50 mM NaCl, 50 ug/mL BSA, 5% Ficoll 400, 2 nM DNA, temperature not stated
[3] = target: Gal4LOV(SK22) I532E/A536E (/ Avena sativa (chimera)) (UniProt P04386); conditions: dark; 20 mM HEPES pH 7.5, 50 mM NaCl, 50 ug/mL BSA, 5% Ficoll 400; 2 nM DNA; temperature not stated
[4] = target: Gal4LOV(SK22) C450V (/ Avena sativa (chimera)) (UniProt P04386); conditions: dark; 20 mM HEPES pH 7.5, 50 mM NaCl, 50 ug/mL BSA, 5% Ficoll 400; 2 nM DNA; temperature not stated

How did the pKd [1] turn out when “TCTTCGGAGGGCTGTCACCCGAATATA (double strand) [1xUAS 27-bp DNA]” was run?
Its pKd is 8.07 and 7.78.

What about the pKd [2] of the same sequence?
Its pKd is 8.38.

What about the pKd ([2]; dark) of the same sequence?
The pKd was 8.19.

What about the pKd [3] of the same sequence?
The pKd was 7.87.

And the pKd [4]?
The pKd was 8.06.
